We go through eight molecules from US8209131B2, “Therapeutic heparins and their binding to interleukins 4 and 5 and PECAM-1” (Curtin University of Technology, priority 2004, dated 2012).

A short description of assay [1]: BIAcore binding of proteins to heparin immobilised on a biosensor chip. To be noted: IL-4 WT and mutants binding to heparin; for ka: in M-1s-1 (unit assumed); for kd: in s-1 (unit assumed); for Kd: read-out: KD. The source says:
This technology uses the optical phenomenon of surface plasmon resonance to monitor physical interactions between molecules. Passing the protein solution over a sensor surface to which the ligand is coupled monitors the real-time binding of proteins to an immobilized ligand. Detection is achieved by measuring refractive index changes very close to the sensor surface. When the refractive index is altered, the angle at which plasmon resonance occurs changes and this change directly correlates with the amount of protein interacting with the surface. A BIAcore 2000 is conveniently used. It is very sensitive and its microfluidics ensures that only small amounts of material are required.
The HLGAGs are immobilized on the biosensor chip. Intact HLGAGs are biotinylated via amino groups, or reducing termini modified with ammonia by reductive amination, using sulfo-NHS-biotin. Biotinylated HLGAGs are immobilized on streptavidin-coupled sensor chips. Solutions containing proteins of interest are injected over the sensor chip surface, and the binding is measured in real time (Fernig, In: Proteoglycan protocols, Ed. R.V. Iozzo, Humana Press, Totowa, N.J., USA, 2001). […] In all cases binding is specific, as there is little or no interaction with sensor chips lacking heparin with any of the targeted proteins, and binding is inhibited by exogenous heparin. Initial analyzes indicate that the binding of rhIL-5 to heparin has affinity constants of the order from 50-5×10^−9. Because unsubstituted amines are variably present in heparan sulfates from different tissues, an alternative method of biotin labeling is recommended for the heparan sulfate chip. In this case, heparan sulfate is labeled via oxidized cis-diol residues using biotinyl-LC-hydrazine. […]
Binding experiments with these proteins has indicated to which PECAM-1 domains heparin binds. Two binding assays were used: the assay where PECAM-1 is reacted with a BIAcore biosensor chip to which heparin has been immobilised and the second assay is the binding of PECAM-1 to heparan sulfate on the cell surface.
Site directed mutagenesis was performed on IL-4. Basic residues within the proposed heparin binding site were changed to alanine and the proteins expressed using the baculovirus expression system. The one exception was R88 which was changed to valine. Insect cell expressed proteins were purified on an anti-IL-4 affinity column and checked for purity by SDS-PAGE and silver staining. Mutant IL-4 proteins were examined for their ability to bind heparin immobilised on a biosensor chip and binding assessed using a BIAcore 2000.
(Surface plasmon resonance follows binding to a sensor surface in real time, without labels.)

Assay [2] relates to TF1.8 cells. Description: TF1.8 bioassay of IL-4 mutants (support of proliferation). The format is cell-based, human. To be noted: IL-4 wt and mutants, TF1.8 cells. The method, then: TF-1.8 cells have been transfected with the firefly luciferase gene contained in the expression vector, pPGK-puromycin-luciferase (Coombe et al., 1998, Supra). The positive transfectants are cloned to produce a line with good luciferase expression. The proliferation assays are carried out in 96-well microplates suitable for such assays Falcon). The wells are flat bottomed, with white sides and a clear bottom. Cells are washed to remove any cytokine in the growth medium and then resuspended in RPMI/5% w/v FCS. The cells are counted with a Coulter Multisizer (Coulter Electronics, England) and routinely 2.5×10^4 cells are added to microplate wells that contain either no IL-4 (negative control) or various dilutions of IL-4. When the effect of HLGAGs, chondroitin sulfate C, or the heparin fractions of a particular length, or heparin fragments of a particular length and structure is to be measured, the wells also contain various concentrations of these molecules.
The cells proliferate for 48 hours at 37° C. in a humidified atmosphere, after which the luciferase activity is measured by the addition of 50 μl of luciferase substrate buffer (50 mm Tris-HCl, pH 7.8, 15 mM MgSO4, 33.3 mM DTT, 0.1 mM EDTA, 0.5 mM Na-luciferin, 0.5 mM ATP, 0.25 mM lithium Co A and 0.5% v/v Triton X-100). Immediately after the addition of the luciferase buffer the plate is assayed for luciferase activity. Light emissions are detected on a Victor 1420 Multilabel counter (Wallac, Turku, Finland).
IL-4 mutants were compared with WT for their ability to support the proliferation of TF1.8 cells. Titration curves were performed for each of the mutants and the concentration needed to support 50% of cell growth was determined.

B1: R75A: IL-4 mutant, baculovirus expressed (protein)
chain: HKCDITLQEIIKTLNSLTEQKTLCTELTVTDIFAASKNTTEKETFCRAATVLRQFYSHHEKDTRCLGATAQQFHAHKQLIRFLKRLDRNLWGLAGLNSCPVKEANQSTLENFLERLKTIMREKYSKCSS
By Kd is commonly meant the equilibrium constant for the complex coming apart. In the case of B1, in assay [1], the ka stood at 3.32E+04, the kd came to 3.63E−03 and the Kd was 109 nM. The “Conc needed for 50% growth, average” value in assay [2] was 0.63 ng/mL.

B2: K12A: IL-4 mutant, baculovirus expressed (protein)
chain: HKCDITLQEIIATLNSLTEQKTLCTELTVTDIFAASKNTTEKETFCRAATVLRQFYSHHEKDTRCLGATAQQFHRHKQLIRFLKRLDRNLWGLAGLNSCPVKEANQSTLENFLERLKTIMREKYSKCSS
Turning to B2, in assay [1], the ka is listed as 5.03E+04, the kd stood at 3.95E−03 and the Kd stood at 78.5 nM. Also, the “Conc needed for 50% growth, average” value in assay [2] is 0.6 ng/mL.

B3: K77A/R81A: IL-4 double mutant (protein)
chain: HKCDITLQEIIKTLNSLTEQKTLCTELTVTDIFAASKNTTEKETFCRAATVLRQFYSHHEKDTRCLGATAQQFHRHAQLIAFLKRLDRNLWGLAGLNSCPVKEANQSTLENFLERLKTIMREKYSKCSS
Turning to B3, in assay [1], the ka is reported as 9.82E+03, the kd was 1.55E−03 and the Kd amounted to 158 nM. In addition, the “Conc needed for 50% growth, average” value in assay [2] was 1.65 ng/mL.

B4: R121A: IL-4 mutant, baculovirus expressed (protein)
chain: HKCDITLQEIIKTLNSLTEQKTLCTELTVTDIFAASKNTTEKETFCRAATVLRQFYSHHEKDTRCLGATAQQFHRHKQLIRFLKRLDRNLWGLAGLNSCPVKEANQSTLENFLERLKTIMAEKYSKCSS
B4: in assay [1], the ka came to 5.13E+04, the kd was 2.13E−03 and the Kd is 41.5 nM. Besides, the “Conc needed for 50% growth, average” value in assay [2] amounted to 1.01 ng/mL.

B5: K21A: IL-4 mutant, baculovirus expressed (protein)
chain: HKCDITLQEIIKTLNSLTEQATLCTELTVTDIFAASKNTTEKETFCRAATVLRQFYSHHEKDTRCLGATAQQFHRHKQLIRFLKRLDRNLWGLAGLNSCPVKEANQSTLENFLERLKTIMREKYSKCSS
As for B5, in assay [1], the ka came to 4.86E+04, the kd is 2.53E−03 and the Kd was determined as 52.1 nM. Also, the “Conc needed for 50% growth, average” value in assay [2] stood at 1.36 ng/mL.

B6: K77A/K84A: IL-4 double mutant (protein)
chain: HKCDITLQEIIKTLNSLTEQKTLCTELTVTDIFAASKNTTEKETFCRAATVLRQFYSHHEKDTRCLGATAQQFHRHAQLIRFLARLDRNLWGLAGLNSCPVKEANQSTLENFLERLKTIMREKYSKCSS
On to B6, for which, in assay [1], the ka worked out at 1.26E+04, the kd is listed as 2.23E−03 and the Kd was found to be 176 nM. Moreover, in assay [2], the “Conc needed for 50% growth, average” value is 1.69 ng/mL.

B7: K77A: IL-4 mutant, baculovirus expressed (protein)
chain: HKCDITLQEIIKTLNSLTEQKTLCTELTVTDIFAASKNTTEKETFCRAATVLRQFYSHHEKDTRCLGATAQQFHRHAQLIRFLKRLDRNLWGLAGLNSCPVKEANQSTLENFLERLKTIMREKYSKCSS
Turning to B7, in assay [1], the ka was 6.42E+03, the kd was found to be 2.24E−03 and the Kd came out at 349 nM. Also, in assay [2], the “Conc needed for 50% growth, average” value turned out to be 1.55 ng/mL.

B8: K77A/R53A: IL-4 double mutant (protein)
chain: HKCDITLQEIIKTLNSLTEQKTLCTELTVTDIFAASKNTTEKETFCRAATVLAQFYSHHEKDTRCLGATAQQFHRHAQLIRFLKRLDRNLWGLAGLNSCPVKEANQSTLENFLERLKTIMREKYSKCSS
B8: in assay [1], the ka was found to be 1.79E+04, the kd is 3.08E−03 and the Kd was found to be 172 nM. The “Conc needed for 50% growth, average” value in assay [2] is 11.3 ng/mL.
